B1: Rpn13 extreme C-terminal pentapeptide (DMSLD; residues 403-407) (peptide)
peptide: DMSLD
notes: also called DMSLD peptide; DMSLD pentapeptide; source: synthetic peptide, bought: Alta BioScience (Birmingham, UK)
B3: TPR domain of SGTA (small, glutamine-rich, tetratricopeptide repeat protein alpha), residues 84-211 (domain or fragment, human, UniProt O43765 84-211, looked up)
chain: SEEDSAEAERLKTEGNEQMKVENFEAAVHFYGKAIELNPANAVYFCNRAAAYSKLGNYAGAVQDCERAICIDPAYSKAYGRMGLALSSLNKHVEAVAYYKKALELDPDNETYKSNLKIAELKLREAPS
notes: human SGTA, central TPR domain, residues 84-211; 15N-labelled (M9 medium) where it was the observed species in NMR; unlabelled otherwise; not shown: thioredoxin A (TxA), N-terminal, cleaved; His6, N-terminal, cleaved

Assays:
SGTA-V5 = SGTA-V5 (UniProt O43765)
Chain of SGTA-V5 (O43765 whole entry): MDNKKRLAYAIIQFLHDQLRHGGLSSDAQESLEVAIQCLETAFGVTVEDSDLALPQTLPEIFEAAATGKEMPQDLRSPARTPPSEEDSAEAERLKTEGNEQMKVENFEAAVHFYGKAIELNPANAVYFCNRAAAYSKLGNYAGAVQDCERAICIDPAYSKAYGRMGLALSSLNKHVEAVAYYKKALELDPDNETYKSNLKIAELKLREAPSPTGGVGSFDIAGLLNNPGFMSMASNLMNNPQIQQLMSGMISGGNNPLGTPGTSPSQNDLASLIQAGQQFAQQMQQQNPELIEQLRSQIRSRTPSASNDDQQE

[1] = target: B3; assay: ITC; SGTA_TPR at 1 mM injected into Rpn13 or DMSLD peptide at 50 μM in the cell; 25 °C, 10 mM potassium phosphate pH 6.0, 100 mM NaCl, 250 μM TCEP; one site assumed (n = 1); settings: both partners purified
[2] = target: T1, TPR domain of SGTA (SGTA_TPR) (Homo sapiens, UniProt O43765); assay: Solution NMR CSP titration of unlabelled ligand into 15N-labelled SGTA_TPR; type: binding; settings: unlabelled ligand into 15N-labelled SGTA_TPR; pH 6.0, 25 °C; Rpn13_260-407 up to 8 equivalents, Rpn13_260-402 up to 6-fold molar excess
T1 construct: thioredoxin A (TxA) fusion (N, cleaved yes); hexahistidine tag (N, cleaved yes); made in house; host or cells: E. coli BL21(DE3) Rosetta
Description: In order to understand molecular details underlying the interaction between SGTA and Rpn13, solution NMR studies were carried out on excised domains of SGTA and Rpn13 guided by earlier mapping studies. Reciprocal chemical shift perturbation (CSP) experiments were performed by titrating unlabelled Rpn13 C-terminal domain (residues 260–407; hereafter described as Rpn13_260-407) into ^15N-labelled TPR domain of SGTA (residues 84–211; hereafter referred to as SGTA_TPR) and vice versa. Assignments of backbone amide resonances were obtained from the BMRB (accession numbers 5709 and 17286, for SGTA_TPR and Rpn13_260-407, respectively). The ^1H-^15N HSQC spectra of both SGTA_TPR and Rpn13_260-407 show binding in a fast exchange regimen (Figs 1A and 2A). […] Binding was further confirmed by size-exclusion chromatography (SEC) and isothermal titration calorimetry (ITC) (Fig. 1C,D). […] ITC experiments yield a dissociation constant of 16.1 ± 1.4 μM in keeping with the value obtained from NMR.
Protein samples at concentrations between 300 μM and 1 mM were prepared in 10% D2O (Sigma Aldrich), 10 mM potassium phosphate pH 6.0, 100 mM NaCl and 250 μM TCEP buffer (with 10 μM DSS for proton chemical shift referencing). All NMR experiments were acquired in 5 mm NMR tubes at 25 °C on 500 MHz and 700 MHz Bruker Avance spectrometers equipped with cryoprobes and operated by the TopSpin 3.1 software package. All NMR spectra were processed with TopSpin and analysed with CcpNMR Analysis[35]. Proteins used for NMR titrations were dialysed overnight against the same buffer (10 mM potassium phosphate pH 6.0, 100 mM NaCl and 250 μM TCEP) and mixed in different molar ratios, with the concentration of the labelled protein maintained constant. ^1H-^15N HSQC experiments were recorded for each titration point at 25 °C. Chemical shift perturbation (CSP) values were calculated for each amide signal using the following formula: […]
where Δδ1H and Δδ15N are the chemical shift differences for the same amide in its free and bound state (δfree−δbound) and for proton and nitrogen chemical shift values respectively. […]

[3] = target: T1, TPR domain of SGTA (SGTA_TPR); assay: Size exclusion chromatography (SEC) complex formation with SGTA_TPR; type: binding; settings: mixed in 1:1 molar ratio
Description: In order to understand molecular details underlying the interaction between SGTA and Rpn13, solution NMR studies were carried out on excised domains of SGTA and Rpn13 guided by earlier mapping studies. Reciprocal chemical shift perturbation (CSP) experiments were performed by titrating unlabelled Rpn13 C-terminal domain (residues 260–407; hereafter described as Rpn13_260-407) into ^15N-labelled TPR domain of SGTA (residues 84–211; hereafter referred to as SGTA_TPR) and vice versa. Assignments of backbone amide resonances were obtained from the BMRB (accession numbers 5709 and 17286, for SGTA_TPR and Rpn13_260-407, respectively). The ^1H-^15N HSQC spectra of both SGTA_TPR and Rpn13_260-407 show binding in a fast exchange regimen (Figs 1A and 2A). […] Binding was further confirmed by size-exclusion chromatography (SEC) and isothermal titration calorimetry (ITC) (Fig. 1C,D). […]
SGTA_TPR and Rpn13 plasmids were transformed into E. coli BL21(DE3) Rosetta cells, with protein expression induced by adding 0.3–0.5 mM isopropyl-β-D-thiogalactopyranoside (IPTG) to bacterial cultures in LB media at OD600 ≈ 0.8, followed by overnight incubation at 18 °C. […] Proteins were concentrated using Vivaspin concentrators (Sartorius Stedin) and sample purity and homogeneity was assessed by SDS-PAGE, mass spectrometry and NMR. […]

[4] = target: T1, TPR domain of SGTA (SGTA_TPR); assay: Isothermal titration calorimetry (ITC), SGTA_TPR titrated into Rpn13 or DMSLD peptide; type: binding; settings: 20 injections of 2 μL of 1 mM SGTA_TPR into 50 μM Rpn13_260-402, pH 6.0, 25 °C
Description: ITC experiments were performed using an ITC-200 microcalorimeter from Microcal (GE Healthcare) at 25 °C following the standard protocol as reported previously. Proteins or peptide samples were prepared in 10 mM potassium phosphate pH 6.0, 100 mM NaCl, 250 μM TCEP. In each titration, either 40 injections of 1 μL or 20 injections of 2 μL of SGTA_TPR each, at a concentration of 1 mM, were added to a sample of Rpn13 or the Rpn13 derived DMSLD peptide at a concentration of 50 μM in the reaction cell. A nonlinear least-squares minimization algorithm was applied to integrated heat data obtained for the titrations, corrected for heats of dilution, in order to fit the experimentally obtained values to a theoretical titration curve. This was performed using the MicroCal-Origin 7.0 software package. ΔH (reaction enthalpy change in kcal/mol), Kb (equilibrium binding constant in per molar), and n (molar ratio between the proteins in the complex) were used as fitting parameters. The reaction entropy, ΔS, was calculated using the relationships ΔG = −RT lnKb (R = 8.314 J/(mol K), T 298 K) where ΔG = ΔH − TΔS. Dissociation constants (Kd) have been determined for each interaction. Binding was assumed to be at one site (n = 1), to determine the binding affinity (Kd) and thermodynamic parameters.

[5] = target: T2, spin labelled K398C Rpn13_(260-407) mutant (human, UniProt Q16186 260-407, K398C, paramagnetic MTSL or diamagnetic dMTSL label incorporated via the K398C cysteine); assay: NMR paramagnetic relaxation enhancement; 15N-labelled SGTA_TPR mixed with MTSL or dMTSL labelled K398C Rpn13_(260-407) at a 1:1.2 ratio, 200 μM; 10 mM potassium phosphate pH 6.0, 100 mM NaCl; 1H-15N HSQC; settings: both partners purified
T2 construct: The paramagnetic and the diamagnetic sample are written as one molecule: the PRE read-out is the ratio of the two; source: E. coli BL21(DE3) Rosetta, purified, then labelled with MTSL or dMTSL; not shown: thioredoxin A (TxA), N-terminal, cleaved; His6, N-terminal, cleaved

[6] = target: T3, Rpn13 C-terminal domain, residues 260-407 (human, UniProt Q16186 260-407); assay: NMR titration; 1H-15N HSQC chemical shift perturbation; unlabelled SGTA_TPR (wild type or K160E/R164E) titrated into 15N-labelled Rpn13_(260-407); 25 °C, 10 mM potassium phosphate pH 6.0, 100 mM NaCl, 250 μM TCEP; settings: both partners purified
T3 construct: 15N-labelled where it was the observed species in NMR; unlabelled otherwise; not shown: thioredoxin A (TxA), N-terminal, cleaved; His6, N-terminal, cleaved

[7] = target: T3, Rpn13 C-terminal domain, residues …; assay: ITC; SGTA_TPR at 1 mM injected into Rpn13 or DMSLD peptide at 50 μM in the cell; 25 °C, 10 mM potassium phosphate pH 6.0, 100 mM NaCl, 250 μM TCEP; one site assumed (n = 1); settings: both partners purified
[8] = target: B1; assay: as above; settings: both partners purified

“FLAG tagged mouse Rpn13 (150-402) (from UniProt Q9JKV1 150-402) (domain or fragment)” showed a fold increase of steady state OP91 level (quantitative western blot) in HeLa TRex Flp-In cells co-expressing SGTA-V5 and Rpn13 (150-402), against the Rpn13 (150-407) control (SGTA-V5) of 3 fold.

B1 showed a Kd [1] of 71.9 ± 13.3 µM.

B2: Rpn13_260-402: Rpn13 construct devoid of the C-terminal pentapeptide (residues 260–402) (protein)
chain: QPIQLSDLQSILATMNVPAGPAGGQQVDLASVLTPEIMAPILANADVQERLLPYLPSGESLPQTADEIQNTLTSPQFQQALGMFSAALASGQLGPLMCQFGLPAEAVEAANKGDVEAFAKAMQNNAKPEQKEGDTKDKKDEEE
modifications: left off: thioredoxin A (TxA), N-terminal, cleaved | His6, N-terminal, cleaved
B2 was tested, and the “CSP of SGTA_TPR backbone amide signals, result in words” value [2] was “no perturbation of SGTA_TPR backbone amide signals”, the “SEC complex formation with SGTA_TPR” value [3] was “no evidence of an interaction” and the “ITC binding, result in words” value [4] was “abrogation of binding with SGTA_TPR”. For the same molecule, the “ITC binding, result in words” value ([4]; listed as Rpn13260-402) was “does not interact”.

With B3 the binding result [5] was “binds”, the Kd [6] was 3.27 ± 0.87 µM and the Kd [7] was 16.1 ± 1.4 µM. The dH [7] was -3.37 ± 0.08 kcal/mol and the dH [8] was -4.97 ± 0.41 kcal/mol.
